Paper PMC2225448
Square brackets hold non-standard residues; d marks the D form. Ends that are not written are not given here. pY = N[C@@H](Cc1ccc(OP(=O)(O)O)cc1)C(=O)O

Target: SOCS4-ElonginC-ElonginB ternary complex (human), Q8WXH5
Assay: ITC; 0.3-0.4 mM peptide injected into 15 μM protein; 50 mM HEPES (pH 7.5), 150 mM NaCl, 1 mM DTT, 20°C; blank titrations subtracted; single binding site model
Conditions: remark: other sources report otherwise

Sequence of SOCS4-ElonginC-ElonginB ternary complex (human), Q8WXH5 (Q8WXH5 274-437, chain 1 of 3): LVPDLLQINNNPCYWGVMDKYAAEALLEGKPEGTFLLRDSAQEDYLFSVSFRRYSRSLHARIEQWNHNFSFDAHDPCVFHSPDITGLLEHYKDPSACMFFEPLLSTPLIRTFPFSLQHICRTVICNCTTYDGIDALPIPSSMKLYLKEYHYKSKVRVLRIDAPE
Sequence of SOCS4-ElonginC-ElonginB ternary complex (human), Q8WXH5 (Q15369 17-112, chain 2 of 3, further chain): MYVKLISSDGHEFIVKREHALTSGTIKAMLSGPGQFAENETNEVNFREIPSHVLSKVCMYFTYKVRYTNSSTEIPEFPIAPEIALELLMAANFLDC
Sequence of SOCS4-ElonginC-ElonginB ternary complex (human), Q8WXH5 (Q15370 whole entry, chain 3 of 3, further chain): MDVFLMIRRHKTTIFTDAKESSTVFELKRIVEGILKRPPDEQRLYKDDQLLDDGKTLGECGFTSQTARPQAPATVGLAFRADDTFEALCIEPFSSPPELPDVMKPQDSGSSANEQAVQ

Ka: 130000 M⁻¹
Kd: 7.7 µM
dH: -14.5 kcal/mol
stoichiometry N: 0.71
Binder: ASFE[pY]TILDPS [EpoR pY402 peptide ASFE(pY)TILDPS]
